Target: T1, Trophoblast cell-surface antigen-2 (Trop-2) (human, UniProt P09758 27-323)
T1 sequence (looked up): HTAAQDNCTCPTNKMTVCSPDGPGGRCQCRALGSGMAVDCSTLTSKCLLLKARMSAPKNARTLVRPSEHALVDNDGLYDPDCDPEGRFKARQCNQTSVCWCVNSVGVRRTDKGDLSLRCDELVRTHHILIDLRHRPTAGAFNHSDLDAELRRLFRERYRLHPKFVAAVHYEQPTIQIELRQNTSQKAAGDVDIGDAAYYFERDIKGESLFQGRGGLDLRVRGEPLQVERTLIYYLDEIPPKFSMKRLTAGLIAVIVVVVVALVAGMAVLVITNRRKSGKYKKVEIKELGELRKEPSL
Experiment: cell-based or functional assay

B1: Anti-Trop-2-BI-P205 (antibody, V domains shown)
VH: SALMSRLTISKDTSKNQFSLKLSSVTAADTAVYYCARDENWDGAWFAYWGQGTLVTVSS
VL: DIVMTQSPDSLAVSLGERATINCKSSQSLLNSGTRKNYLAWYQQKPGQPPKLLISWASSRESGVPDRFSGSGSGTDFTLTISSLQAEDVAVYYCKQSYNLFTFGGGTKVEIKR
modifications: BI-P205 maytansinoid drug-linker on cysteines; positions not given; DAR 3.6, 4.9 or 7.1
IC50 (nM), in vitro cytotoxicity (CCK-8, 72 h), BxPC-3 cells (TROP2 +++), ADC at DAR 3.6: 0.43 nM
IC50 (nM), in vitro cytotoxicity (CCK-8, 72 h), BxPC-3 cells (TROP2 +++), ADC at DAR 7.1: 0.52 nM
IC50 (nM), in vitro cytotoxicity (CCK-8, 72 h), Colo205 cells (TROP2 +), ADC at DAR 7.1: 26.1 nM
IC50 (nM), in vitro cytotoxicity (CCK-8, 72 h), MDA-MB-468 cells (TROP2 ++), ADC at DAR 4.9: 1.58 nM
IC50 (nM), in vitro cytotoxicity (CCK-8, 72 h), MDA-MB-468 cells (TROP2 ++), ADC at DAR 7.1: 0.47 nM
IC50 (nM), in vitro cytotoxicity (CCK-8, 72 h), NCI-N87 cells (TROP2 ++/+), ADC at DAR 3.6: 0.282 nM

B2: Anti-Trop-2-BI-P209 (antibody, V domains shown)
VH: B1 VH
VL: B1 VL
modifications: BI-P209 maytansinoid drug-linker on cysteines; positions not given; DAR 6.2
IC50 (nM), in vitro cytotoxicity (CCK-8, 72 h), Colo205 cells (TROP2 +), ADC at DAR 6.2: > 500 nM
IC50 (nM), in vitro cytotoxicity (CCK-8, 72 h), MDA-MB-468 cells (TROP2 ++), ADC at DAR 6.2: 5.37 nM

B3: Anti-Trop-2-BI-P204 (antibody, V domains shown)
VH: B1 VH
VL: B1 VL
modifications: BI-P204 maytansinoid drug-linker on cysteines; positions not given; DAR 2.8 or 3.9
IC50 (nM), in vitro cytotoxicity (CCK-8, 72 h), BxPC-3 cells (TROP2 +++), ADC at DAR 2.8: 0.38 nM
IC50 (nM), in vitro cytotoxicity (CCK-8, 72 h), MDA-MB-468 cells (TROP2 ++), ADC at DAR 3.9: 1.81 nM
IC50 (nM), in vitro cytotoxicity (CCK-8, 72 h), NCI-N87 cells (TROP2 ++/+), ADC at DAR 2.8: 17.6 nM

B4: Anti-Trop-2-BI-P208 (antibody, V domains shown)
VH: B1 VH
VL: B1 VL
modifications: BI-P208 maytansinoid drug-linker on cysteines; positions not given; DAR 3.0 or 4.3
IC50 (nM), in vitro cytotoxicity (CCK-8, 72 h), BxPC-3 cells (TROP2 +++), ADC at DAR 3.0: 0.67 nM
IC50 (nM), in vitro cytotoxicity (CCK-8, 72 h), MDA-MB-468 cells (TROP2 ++), ADC at DAR 4.3: 2.22 nM
IC50 (nM), in vitro cytotoxicity (CCK-8, 72 h), NCI-N87 cells (TROP2 ++/+), ADC at DAR 3.0: 6.43 nM

B5: Anti-Trop-2-BI-P206 (antibody, V domains shown)
VH: B1 VH
VL: B1 VL
modifications: BI-P206 maytansinoid drug-linker on cysteines; positions not given; DAR 3.6 or 4.5
IC50 (nM), in vitro cytotoxicity (CCK-8, 72 h), BxPC-3 cells (TROP2 +++), ADC at DAR 3.6: 0.99 nM
IC50 (nM), in vitro cytotoxicity (CCK-8, 72 h), MDA-MB-468 cells (TROP2 ++), ADC at DAR 4.5: 2.66 nM
IC50 (nM), in vitro cytotoxicity (CCK-8, 72 h), NCI-N87 cells (TROP2 ++/+), ADC at DAR 3.6: 125 nM

B6: Anti-Trop-2-SMCC-DM1 (antibody, V domains shown)
VH: B1 VH
VL: B1 VL
modifications: SMCC-DM1 on lysines; positions not given; DAR 4
IC50 (nM), in vitro cytotoxicity (CCK-8, 72 h), BxPC-3 cells (TROP2 +++), ADC at DAR 4: 1.01 nM
IC50 (nM), in vitro cytotoxicity (CCK-8, 72 h), Colo205 cells (TROP2 +), ADC at DAR 4: 56.4 nM
IC50 (nM), in vitro cytotoxicity (CCK-8, 72 h), MDA-MB-468 cells (TROP2 ++), ADC at DAR 4: 4.88 nM
IC50 (nM), in vitro cytotoxicity (CCK-8, 72 h), NCI-N87 cells (TROP2 ++/+), ADC at DAR 4: 2.88 nM

B7: Anti-Trop-2-BI-P207 (antibody, V domains shown)
VH: B1 VH
VL: B1 VL
modifications: BI-P207 maytansinoid drug-linker on cysteines; positions not given; DAR 3.4 or 4.5
IC50 (nM), in vitro cytotoxicity (CCK-8, 72 h), BxPC-3 cells (TROP2 +++), ADC at DAR 3.4: 2.09 nM
IC50 (nM), in vitro cytotoxicity (CCK-8, 72 h), MDA-MB-468 cells (TROP2 ++), ADC at DAR 4.5: 4.29 nM
IC50 (nM), in vitro cytotoxicity (CCK-8, 72 h), NCI-N87 cells (TROP2 ++/+), ADC at DAR 3.4: 33.8 nM

B8: Anti-Trop-2-Vc-MMAE (antibody, V domains shown)
VH: B1 VH
VL: B1 VL
modifications: vc-MMAE drug-linker; conjugation site not stated; DAR 4
IC50 (nM), in vitro cytotoxicity (CCK-8, 72 h), BxPC-3 cells (TROP2 +++), ADC at DAR 4: 0.51 nM
IC50 (nM), in vitro cytotoxicity (CCK-8, 72 h), Colo205 cells (TROP2 +), ADC at DAR 4: 0.68 nM
IC50 (nM), in vitro cytotoxicity (CCK-8, 72 h), MDA-MB-468 cells (TROP2 ++), ADC at DAR 4: 0.54 nM
IC50 (nM), in vitro cytotoxicity (CCK-8, 72 h), NCI-N87 cells (TROP2 ++/+), ADC at DAR 4: 0.49 nM

— patent US20230256114A1, “NOVEL MAYTANSINOIDS AS ADC PAYLOADS AND THEIR USE FOR THE TREATMENT OF CANCER” (priority 2020, published 2023)
